Data taken from US20230406950A1 (LYVGEN BIOPHARMA, published 2023).
Like-named read-outs stand apart in the source and are kept apart here.

T1: human OX40 expressed on CHO cells (human, UniProt P43489 29-277)
T1 construct: whole, on cells
T1 sequence (looked up): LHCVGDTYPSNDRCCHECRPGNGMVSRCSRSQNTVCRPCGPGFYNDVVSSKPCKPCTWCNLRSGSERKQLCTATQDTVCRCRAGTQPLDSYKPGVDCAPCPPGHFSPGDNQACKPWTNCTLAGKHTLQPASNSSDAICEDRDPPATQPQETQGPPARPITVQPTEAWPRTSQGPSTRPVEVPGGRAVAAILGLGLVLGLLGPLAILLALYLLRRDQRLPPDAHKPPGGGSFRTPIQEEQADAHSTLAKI

B1: Ly756 (bispecific antibody, human IgG1, kappa)
heavy: QVQLVQSGAEVKKPGASVKVSCKASGYTFAGFEMHWVRQAPGQGLEWMGAIDPKTGGTDYNQKFKDRVTMTRDTSISTAYMELSRLRSDDTAVYYCARDLGYFDVWGQGTLVTVSSASTKGPSVFPLAPSSKSTSGGTAALGCLVKDYFPEPVTVSWNSGALTSGVHTFPAVLQSSGLYSLSSVVTVPSSSLGTQTYICNVNHKPSNTKVDKKVEPKSCDKTHTCPPCPAPELLGPSVFLFPPKPKDTLMISRTPEVTCVVVDVSHEDPEVKFNWYVDGVEVHNAKTKPREEQYNSTYRVVSVLTVLHQDWLNGKEYKCKVSNKALPAPIEKTISKAKGQPREPQVYTLPPSREEMTKNQVSLTCLVKGFYPSDIAVEWESNGQPENNYKTTPPVLDSDGSFFLYSKLTVDKSRWQQGNVFSCSVMHEALHNHYTQKSLSLSPGK
light: DIQMTQSPSSLSASVGDRVTITCRASQDIRSNLNWYQQKPGGAVKLLIYYTSRLHSGVPSRFSGSGSGTDYTLTISSLQPEDFATYFCQQSEKLPRTFGGGTKVEIRRTVAAPSVFIFPPSDEQLKSGTASVVCLLNNFYPREAKVQWKVDNALQSGNSQESVTEQDSKDSTYSLSSTLTLSKADYEKHKVYACEVTHQGLSSPVTKSFNRGECGGGGSGGGGSGGGGSGGGGSEIVLTQSPATLSLSPGERATLSCRASKSVRTGMHWYQQKPGQAPRLLIYGASNLESGIPARFSGSGSGTDFTLTISSLEPEDFAVYYCQQSWNHFTFGQGTKLEIKGGGGSGGGGSGGGGSGGGGSQVQLQESGPGLVKPSETLSLTCTVSGFSLTSYNVHWIRQPPGKGLEWIGVIWSGVRTDYNSVLKPRVTISVDTSKNQFSLKLSSVTAADTAVYYCARGTYDDNYHDVMDAWGQGTLVTVSS
notes: Anti-GITR/CD137: Ly1630 heavy chain; Ly1630 light chain fused to TM685 scFv (VL-VH)
B2: Ly765 (bispecific antibody, human IgG1, kappa)
heavy: B1 heavy
light: DIQMTQSPSSLSASVGDRVTITCRASQDIRSNLNWYQQKPGGAVKLLIYYTSRLHSGVPSRFSGSGSGTDYTLTISSLQPEDFATYFCQQSEKLPRTFGGGTKVEIRRTVAAPSVFIFPPSDEQLKSGTASVVCLLNNFYPREAKVQWKVDNALQSGNSQESVTEQDSKDSTYSLSSTLTLSKADYEKHKVYACEVTHQGLSSPVTKSFNRGECGGGGSGGGGSGGGGSGGGGSEVQLVQSGAEVKKPGASVKVSCKASGYTFTDSYMSWVRQAPGQGLEWIGDMYPDNGDSSYNQKFRERVTITRDTSTSTAYLELSSLRSEDTAVYYCVLAPRWYFSVWGQGTLVTVSSGGGGSGGGGSGGGGSGGGGSDIQMTQSPSSLSASVGDRVTITCRASQDISNYLNWYQQKPGKAPKLLIYYTSRLRSGVPSRFSGSGSGTDFTLTISSLQPEDFATYYCQQGHTLPPTFGQGTKVEIK
notes: Anti-OX40/CD137: Ly1630 heavy chain
B3: Ly766 (bispecific antibody, human IgG1, kappa)
heavy: EVQLVQSGAEVKKPGASVKVSCKASGYTFTDSYMSWVRQAPGQGLEWIGDMYPDNGDSSYNQKFRERVTITRDTSTSTAYLELSSLRSEDTAVYYCVLAPRWYFSVWGQGTLVTVSSASTKGPSVFPLAPSSKSTSGGTAALGCLVKDYFPEPVTVSWNSGALTSGVHTFPAVLQSSGLYSLSSVVTVPSSSLGTQTYICNVNHKPSNTKVDKKVEPKSCDKTHTCPPCPAPELLGPSVFLFPPKPKDTLMISRTPEVTCVVVDVSHEDPEVKFNWYVDGVEVHNAKTKPREEQYNSTYRVVSVLTVLHQDWLNGKEYKCKVSNKALPAPIEKTISKAKGQPREPQVYTLPPSREEMTKNQVSLTCLVKGFYPSDIAVEWESNGQPENNYKTTPPVLDSDGSFFLYSKLTVDKSRWQQGNVFSCSVMHEALHNHYTQKSLSLSPGGGGGSGGGGSGGGGSGGGGSDIQMTQSPSSLSASVGDRVTITCRASQDIRSNLNWYQQKPGGAVKLLIYYTSRLHSGVPSRFSGSGSGTDYTLTISSLQPEDFATYFCQQSEKLPRTFGGGTKVEIRGGGGSGGGGSGGGGSGGGGSQVQLVQSGAEVKKPGASVKVSCKASGYTFAGFEMHWVRQAPGQGLEWMGAIDPKTGGTDYNQKFKDRVTMTRDTSISTAYMELSRLRSDDTAVYYCARDLGYFDVWGQGTLVTVSS
light: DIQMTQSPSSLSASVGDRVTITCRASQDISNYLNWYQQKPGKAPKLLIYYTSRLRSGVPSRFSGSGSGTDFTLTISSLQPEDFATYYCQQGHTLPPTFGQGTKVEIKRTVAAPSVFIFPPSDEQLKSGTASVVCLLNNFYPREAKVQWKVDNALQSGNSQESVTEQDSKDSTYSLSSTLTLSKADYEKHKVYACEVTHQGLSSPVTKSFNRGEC
notes: Anti-OX40/CD137: Ly598-derived heavy chain fused to Ly1630 scFv (VL-VH); Ly598 light chain
B4: Ly767 (bispecific antibody, human IgG1, kappa)
heavy: EVQLVQSGAEVKKPGASVKVSCKASGYTFTDSYMSWVRQAPGQGLEWIGDMYPDNGDSSYNQKFRERVTITRDTSTSTAYLELSSLRSEDTAVYYCVLAPRWYFSVWGQGTLVTVSSASTKGPSVFPLAPSSKSTSGGTAALGCLVKDYFPEPVTVSWNSGALTSGVHTFPAVLQSSGLYSLSSVVTVPSSSLGTQTYICNVNHKPSNTKVDKKVEPKSCDKTHTCPPCPAPELLGPSVFLFPPKPKDTLMISRTPEVTCVVVDVSHEDPEVKFNWYVDGVEVHNAKTKPREEQYNSTYRVVSVLTVLHQDWLNGKEYKCKVSNKALPAPIEKTISKAKGQPREPQVYTLPPSREEMTKNQVSLTCLVKGFYPSDIAVEWESNGQPENNYKTTPPVLDSDGSFFLYSKLTVDKSRWQQGNVFSCSVMHEALHNHYTQKSLSLSPGGGGGSGGGGSGGGGSGGGGSQVQLVQSGAEVKKPGASVKVSCKASGYTFAGFEMHWVRQAPGQGLEWMGAIDPKTGGTDYNQKFKDRVTMTRDTSISTAYMELSRLRSDDTAVYYCARDLGYFDVWGQGTLVTVSSGGGGSGGGGSGGGGSGGGGSDIQMTQSPSSLSASVGDRVTITCRASQDIRSNLNWYQQKPGGAVKLLIYYTSRLHSGVPSRFSGSGSGTDYTLTISSLQPEDFATYFCQQSEKLPRTFGGGTKVEIR
light: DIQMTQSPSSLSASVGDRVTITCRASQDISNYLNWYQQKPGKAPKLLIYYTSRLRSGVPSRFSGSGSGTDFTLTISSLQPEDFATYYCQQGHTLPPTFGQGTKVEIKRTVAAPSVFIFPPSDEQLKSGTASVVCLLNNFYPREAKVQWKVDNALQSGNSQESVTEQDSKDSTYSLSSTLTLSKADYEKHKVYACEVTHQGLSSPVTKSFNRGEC
notes: Anti-OX40/CD137: Ly598-derived heavy chain fused to Ly1630 scFv (VH-VL); Ly598 light chain
B5: Ly768 (bispecific antibody, human IgG1, kappa)
heavy: EVQLVQSGAEVKKPGASVKVSCKASGYTFTDSYMSWVRQAPGQGLEWIGDMYPDNGDSSYNQKFRERVTITRDTSTSTAYLELSSLRSEDTAVYYCVLAPRWYFSVWGQGTLVTVSSASTKGPSVFPLAPSSKSTSGGTAALGCLVKDYFPEPVTVSWNSGALTSGVHTFPAVLQSSGLYSLSSVVTVPSSSLGTQTYICNVNHKPSNTKVDKKVEPKSCDKTHTCPPCPAPELLGPSVFLFPPKPKDTLMISRTPEVTCVVVDVSHEDPEVKFNWYVDGVEVHNAKTKPREEQYNSTYRVVSVLTVLHQDWLNGKEYKCKVSNKALPAPIEKTISKAKGQPREPQVYTLPPSREEMTKNQVSLTCLVKGFYPSDIAVEWESNGQPENNYKTTPPVLDSDGSFFLYSKLTVDKSRWQQGNVFSCSVMHEALHNHYTQKSLSLSPGK
light: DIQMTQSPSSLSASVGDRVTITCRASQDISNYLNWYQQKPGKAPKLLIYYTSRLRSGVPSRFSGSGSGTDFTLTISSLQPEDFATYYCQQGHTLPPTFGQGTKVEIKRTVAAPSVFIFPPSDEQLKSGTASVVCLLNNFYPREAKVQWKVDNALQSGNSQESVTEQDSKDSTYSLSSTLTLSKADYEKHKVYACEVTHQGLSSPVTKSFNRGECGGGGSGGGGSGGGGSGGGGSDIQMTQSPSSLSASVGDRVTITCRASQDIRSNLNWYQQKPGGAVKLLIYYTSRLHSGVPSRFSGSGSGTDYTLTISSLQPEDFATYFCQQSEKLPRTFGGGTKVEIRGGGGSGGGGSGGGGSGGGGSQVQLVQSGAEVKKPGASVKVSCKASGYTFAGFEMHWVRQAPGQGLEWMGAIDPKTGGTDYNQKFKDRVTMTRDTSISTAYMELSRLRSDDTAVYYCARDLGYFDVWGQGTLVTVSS
notes: Anti-OX40/CD137: Ly598-derived heavy chain
B6: Ly769 (bispecific antibody, human IgG1, kappa)
heavy: B5 heavy
light: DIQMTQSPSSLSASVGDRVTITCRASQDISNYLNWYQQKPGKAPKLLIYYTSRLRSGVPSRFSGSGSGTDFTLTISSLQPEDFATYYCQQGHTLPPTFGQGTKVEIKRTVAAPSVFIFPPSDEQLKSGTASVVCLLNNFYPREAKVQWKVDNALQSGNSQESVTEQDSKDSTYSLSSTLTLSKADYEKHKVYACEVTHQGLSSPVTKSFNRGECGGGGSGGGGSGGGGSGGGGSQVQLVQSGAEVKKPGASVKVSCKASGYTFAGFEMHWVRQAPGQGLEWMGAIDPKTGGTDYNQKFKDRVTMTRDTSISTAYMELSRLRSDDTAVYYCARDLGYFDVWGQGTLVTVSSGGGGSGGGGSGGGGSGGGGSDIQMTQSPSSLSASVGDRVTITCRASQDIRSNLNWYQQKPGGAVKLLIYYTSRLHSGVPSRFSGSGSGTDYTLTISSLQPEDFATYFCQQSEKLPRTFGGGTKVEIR
notes: as for B5

Legend:
[1] = biological target: T2, human CD137 expressed on cells (human, UniProt Q07011 24-255); assay: FACS on CHO cells expressing human CD137 (MFI)
T2 construct: whole, on cells; also called 4-1BB; TNFRSF9
T2 sequence (Q07011 24-255): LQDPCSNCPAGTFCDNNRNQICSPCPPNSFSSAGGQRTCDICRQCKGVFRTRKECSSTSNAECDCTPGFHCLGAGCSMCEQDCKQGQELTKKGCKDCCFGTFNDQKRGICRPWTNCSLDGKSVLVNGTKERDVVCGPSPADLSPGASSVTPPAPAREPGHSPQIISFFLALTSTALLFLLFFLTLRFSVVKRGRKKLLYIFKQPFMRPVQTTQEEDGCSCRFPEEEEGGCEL
Description: (§1) Anti-GITR/CD137 bi-specific antibodies were analyzed by FACS for their binding properties to human GITR and/or human CD137 expressed on CHO cells. Briefly, cultured cells were harvested, counted and cell viability was evaluated using the Trypan Blue exclusion method. Viable cells were then adjusted to 2×10⁶ cells per mL in PBS containing 2% BSA. 100 μL of this cell suspension were further aliquoted per well into a V-bottom 96-well plate. […] After incubation for 2 hours at 4° C., cells were centrifuged (3 min, 1000× g), washed with 250 μL/well BSA-containing FACS Stain Buffer, resuspended and incubated for an additional 1 hour at 4° C. with 100 μL/well fluorochrome-conjugated anti-IgG antibody for detection of the bisepecific antibody. Cells were then washed with 250 μL/well BSA-containing FACS Stain Buffer, resuspended in 100 μL/well FACS Stain Buffer, acquired and analyzed using a FACS machine. Binding of the bispecific antibodies to human GITR or human CD137 expressing CHO cells were evaluated and the mean fluorescence intensity is plotted in histograms or dot plots.

[2] = biological target: T1, human OX40 expressed on CHO cells; assay: FACS on CHO cells expressing human OX40 (MFI)
Description: as §1, with “Anti-OX40/CD137” for “Anti-GITR/CD137”, “OX40” for “GITR”, “1000×g),” for “1000× g),”

[3] = biological target: T2, human CD137 expressed on cells; assay: FACS on CHO cells expressing human CD137 (MFI); remark: listed apart in the source
Description: as §1, with “Anti-OX40/CD137” for “Anti-GITR/CD137”, “OX40” for “GITR”, “1000×g),” for “1000× g),”

[4] = biological target: T2, human CD137 expressed on cells; assay: FACS on CHO cells expressing human CD137 (MFI); remark: listed apart in the source
Description: as §1, with “Anti-OX40/CD137” for “Anti-GITR/CD137”, “OX40” for “GITR”, “1000×g),” for “1000× g),”

Binder | EC50 (read off the curve) [1] [µg/mL] | binding result [2] | EC50 (read off the curve) [3] [µg/mL] | EC50 (read off the curve) [2] [µg/mL] | EC50 (read off the curve) [4] [µg/mL]
B1 | ~0.1 | – | – | – | –
B2 | – | binds | ~0.2 | – | –
B3 | – | – | – | ~0.4 | ~0.2
B4 | – | – | – | ~0.4 | ~0.3
B5 | – | binds | – | – | ~0.3
B6 | – | binds | – | – | ~0.6
